A short description of data set [1]: Body weight of mice given different dosages of antibody (Example 3). In kind it is in vivo, BALB/c nude mice. To be noted: 40, 70, 100 mg/kg i.p. 3 times a week for 2 weeks; FIG. 6. The procedure: (§1) According to Example 2, different dosage of antibodies were administered to tumor-forming mice. The administration manners are listed as follows:
(§2) 1. AB1, administered with the antibody against CLD18A2 prepared in Example 1, at a dosage of 40 mg/kg, intraperitoneal injection, 3 times a week for 2 weeks.
(§3) 2. AB2, administered with the antibody against CLD18A2 prepared in Example 1, at a dosage of 70 mg/kg, intraperitoneal injection, 3 times a week for 2 weeks.
(§4) 3. AB3, administered with the antibody against CLD18A2 prepared in Example 1, at a dosage of 100 mg/kg, intraperitoneal injection, 3 times a week for 2 weeks.

In data set [2] the test system is human gastric cancer PDX-GA0006 model. Kind of data set: Analysis of the administration amount of antibody in tumor-forming PDX mice (Example 3). In kind it is in vivo, BALB/c nude mice. To be noted: AB3 group: 100 mg/kg i.p. 3 times a week for 2 weeks, versus 40 and 70 mg/kg; FIG. 5. Here is the method:
as §1, §2, §3, §4

The test system is the same in data set [3]. Kind of data set: In vivo efficacy experiment of subcutaneous transplanted tumor in mouse PDX model (Example 2). Also noted: species or system BALB/c nude mice. To be noted: tumors weighed after euthanasia on D51; Ab 40 mg/kg i.p. 3 times a week; epirubicin 1.25 mg/kg, oxaliplatin 3.25 mg/kg, fluorouracil 56.25 mg/kg once a week. From the text:
A 2×2×2 mm gastric cancer PDX tumor mass was inoculated into BALB/c mice (the day of inoculation was DO). On D27 of subcutaneous inoculation, the tumor volume was 128 mm^3 on average, thereby obtaining the human gastric cancer PDX-GA0006 model, or abbreviated as PDX model. The tumor-forming mice were randomly divided into 6 groups, namely solvent group, antibody group (Ab group), EOF group, EOF+Ab group, OF group, OF+Ab group. During the experiment, the general clinical symptoms of the animals were observed, and the body weight and tumor diameter were measured twice a week. On D51, the mice were euthanized. The manners of administration are listed as follows:
Solvent group: intraperitoneal injection, 3 times a week.
Ab group: antibody against CLD18A2 prepared in Example 1, 40 mg/kg, intraperitoneal injection, 3 times a week.
EOF group: a combination of epirubicin hydrochloride for intraperitoneal injection (1.25 mg/kg)+oxaliplatin for injection (3.25 mg/kg)+fluorouracil injection (56.25 mg/kg), once a week; solvent, intraperitoneal injection, 3 times a week.
EOF+Ab group: EOF (epirubicin hydrochloride (1.25 mg/kg)+oxaliplatin for injection (3.25 mg/kg)+fluorouracil injection (56.25 mg/kg)), once a week, the antibody against CLD18A2 (40 mg/kg), 3 times a week. […]

B1: Ab: humanized antibody targeting CLD18A2, heavy chain variable region SEQ ID NO: 15, light chain variable region SEQ ID NO: 13 (antibody, V domains shown)
VH: QVQLQESGPGLIKPSQTLSLTCTVSGGSISSGYNWHWIRQPPGKGLEWIGYIHYTGSTNYNPALRSRVTISVDTSKNQFSLKLSSVTAADTAIYYCARIYNGNSFPYWGQGTTVTVSS
VL: DIVMTQSPDSLAVSLGERATINCKSSQSLFNSGNQKNYLTWYQQKPGQPPKLLIYWASTRESGVPDRFSGSGSGTDFTLTISSLQAEDVAVYYCQNAYSFPYTFGGGTKLEIKR
Consider B1, for which, in data set [1], the “change in body weight of mice” value is reported as “no significant change”. Also, the “anti-tumor effects (increase in tumor volume) at different dosages” value in data set [2] is recorded as “better anti-tumor effects”. Also, the “tumor inhibition rate compared with the solvent group (tumor weight)” value in data set [3] is on record as 1.21%.

The values are drawn from patent publication US20220033491A1, “COMBINATION THERAPY OF CLDN18 ANTIBODY AND CHEMOTHERAPY DRUGS” (CAFA THERAPEUTICS LIMITED, priority 2018, published 2022).
